Source: patent US20230416365A1 (Hoffmann-La Roche, published 2023)

Molecular target: T1, human CD28 on CHO cells (parental cell line CHO-k1 ATCC #CCL-61, modified to stably overexpress human CD28) (human, UniProt P10747 19-220)
T1 construct: also called hu CD28; CHO-hCD28
Test: flow cytometry on CHO cells stably expressing human CD28, monovalent one-armed IgG from supernatant, MFI (PE)
Method: Binding was assessed by flow cytometry with a FACS Fortessa (BD, Software FACS Diva). Binding curves were obtained using GraphPadPrism6.

Binder | binding result
CD28(SA)_variant_30 (antibody, human IgG1, kappa, L234A L235A, monovalent one-armed huIgG1 PG-LALA; from supernatant; also called P1AE3086) heavy: not shown light: DIQMTQSPSSLSASVGDRVTITCRASQNIYVWLNWYQQKPGKAPKLLIYKASNLYSGVPSRFSGSRSGTDFTLTISSLQPEDFATYYCQQGQTYPYTFGQGTKLEIKRTVAAPSVFIFPPSDRKLKSGTASVVCLLNNFYPREAKVQWKVDNALQSGNSQESVTEQDSKDSTYSLSSTLTLSKADYEKHKVYACEVTHQGLSSPVTKSFNRGEC DKTHTCPPCPAPEAAGGPSVFLFPPKPKDTLMISRTPEVTCVVVDVSHEDPEVKFNWYVDGVEVHNAKTKPREEQYNSTYRVVSVLTVLHQDWLNGKEYKCKVSNKALGAPIEKTISKAKGQPREPQVCTLPPSRDELTKNQVSLSCAVKGFYPSDIAVEWESNGQPENNYKTTPPVLDSDGSFFLVSKLTVDKSRWQQGNVFSCSVMHEALHNRFTQKSLSLSP | binds
CD28(SA)_variant_29 (antibody, human IgG1, kappa, L234A L235A, monovalent one-armed huIgG1 PG-LALA; from supernatant; also called P1AE3085) heavy: not shown light: not shown DKTHTCPPCPAPEAAGGPSVFLFPPKPKDTLMISRTPEVTCVVVDVSHEDPEVKFNWYVDGVEVHNAKTKPREEQYNSTYRVVSVLTVLHQDWLNGKEYKCKVSNKALGAPIEKTISKAKGQPREPQVCTLPPSRDELTKNQVSLSCAVKGFYPSDIAVEWESNGQPENNYKTTPPVLDSDGSFFLVSKLTVDKSRWQQGNVFSCSVMHEALHNRFTQKSLSLSP | binds
CD28(SA)_variant_31 (antibody, human IgG1, kappa, L234A L235A, monovalent one-armed huIgG1 PG-LALA; from supernatant; also called P1AE3087) heavy: not shown light: not shown DKTHTCPPCPAPEAAGGPSVFLFPPKPKDTLMISRTPEVTCVVVDVSHEDPEVKFNWYVDGVEVHNAKTKPREEQYNSTYRVVSVLTVLHQDWLNGKEYKCKVSNKALGAPIEKTISKAKGQPREPQVCTLPPSRDELTKNQVSLSCAVKGFYPSDIAVEWESNGQPENNYKTTPPVLDSDGSFFLVSKLTVDKSRWQQGNVFSCSVMHEALHNRFTQKSLSLSP | binds
CD28(SA)_variant_26 (antibody, human IgG1, kappa, L234A L235A, monovalent one-armed huIgG1 PG-LALA; from supernatant; also called P1AE3082) heavy: not shown light: not shown DKTHTCPPCPAPEAAGGPSVFLFPPKPKDTLMISRTPEVTCVVVDVSHEDPEVKFNWYVDGVEVHNAKTKPREEQYNSTYRVVSVLTVLHQDWLNGKEYKCKVSNKALGAPIEKTISKAKGQPREPQVCTLPPSRDELTKNQVSLSCAVKGFYPSDIAVEWESNGQPENNYKTTPPVLDSDGSFFLVSKLTVDKSRWQQGNVFSCSVMHEALHNRFTQKSLSLSP | binds
CD28(SA)_variant_25 (antibody, human IgG1, kappa, L234A L235A, monovalent one-armed huIgG1 PG-LALA; from supernatant; also called P1AE3081) heavy: not shown light: not shown DKTHTCPPCPAPEAAGGPSVFLFPPKPKDTLMISRTPEVTCVVVDVSHEDPEVKFNWYVDGVEVHNAKTKPREEQYNSTYRVVSVLTVLHQDWLNGKEYKCKVSNKALGAPIEKTISKAKGQPREPQVCTLPPSRDELTKNQVSLSCAVKGFYPSDIAVEWESNGQPENNYKTTPPVLDSDGSFFLVSKLTVDKSRWQQGNVFSCSVMHEALHNRFTQKSLSLSP | binds
CD28(SA)_variant_27 (antibody, human IgG1, kappa, L234A L235A, monovalent one-armed huIgG1 PG-LALA; from supernatant; also called P1AE3083) heavy: not shown light: not shown DKTHTCPPCPAPEAAGGPSVFLFPPKPKDTLMISRTPEVTCVVVDVSHEDPEVKFNWYVDGVEVHNAKTKPREEQYNSTYRVVSVLTVLHQDWLNGKEYKCKVSNKALGAPIEKTISKAKGQPREPQVCTLPPSRDELTKNQVSLSCAVKGFYPSDIAVEWESNGQPENNYKTTPPVLDSDGSFFLVSKLTVDKSRWQQGNVFSCSVMHEALHNRFTQKSLSLSP | binds
